Reference: article PMC9606215

What was measured:
complement C3b [1] = biological target: complement C3b (UniProt P01024); assay: SPR; activated C3 convertase C3bBb formation: C3b amine-coupled to a CM5 chip; CFB flowed at 1.0-4.0 uM with complement factor D (1 mM [sic] CFD); 10 mM HEPES pH 7.4, 50 mM NaCl, 3 mM MgCl2, 0.005% surfactant P20; Biacore
complement C3b [2] = biological target: complement C3b (UniProt P01024); assay: SPR; C3b amine-coupled to a CM5 chip; CFB as analyte at 1.0-4.0 μM in 10 mM HEPES pH 7.4, 50 mM NaCl, 3 mM MgCl2, 1 mM CFD, 0.005% surfactant P20 (activated C3 convertase C3bBb formation); two state interaction model
complement C3b [3] = biological target: complement C3b (UniProt P01024); assay: SPR; C3b amine-coupled to a CM5 chip; CFB flowed at 0.125-4.0 μM, 30 μl/min; 10 mM HEPES pH 7.4, 50 mM NaCl, 3 mM MgCl2, 0.005% surfactant P20; without CFD (proenzyme C3bB formation); two state interaction model
complement C3b [4] = biological target: complement C3b (UniProt P01024); assay: SPR; proenzyme C3bB formation: C3b amine-coupled to a CM5 chip; CFB flowed at 0.125-4.0 uM, 30 ul/min; 10 mM HEPES pH 7.4, 50 mM NaCl, 3 mM MgCl2, 0.005% surfactant P20; without CFD; Biacore

Substance	koff (complement C3b [1]) [s⁻¹]	kon (complement C3b [1]) [M⁻¹ s⁻¹]	Kd (complement C3b [2]) [nM]	Kd (complement C3b [3]) [nM]	koff (complement C3b [4]) [s⁻¹]	kon (complement C3b [4]) [M⁻¹ s⁻¹]	Kd (complement C3b [4]) [nM]
complement factor B, R32W variant (32W) (from UniProt P00751 26-764) (natural protein)	0.00236	7420	318	2250	0.015	6700	–
complement factor B, wild type (32R) (from UniProt P00751 26-764) (natural protein)	0.00247	32000	77.3	610	0.0088	14500	608
